The source of these data is publication PMC7367873, “Dissecting the sequence determinants for dephosphorylation by the catalytic subunits of phosphatases PP1 and PP2A” (Nature Communications, 2020).

B1: UBTF (protein, UniProt P17480 1-764, looked up)
Nucleolar transcription …: MNGEADCPTDLEMAAPKGQDRWSQEDMLTLLECMKNNLPSNDSSKFKTTESHMDWEKVAFKDFSGDMCKLKWVEISNEVRKFRTLTELILDAQEHVKNPYKGKKLKKHPDFPKKPLTPYFRFFMEKRAKYAKLHPEMSNLDLTKILSKKYKELPEKKKMKYIQDFQREKQEFERNLARFREDHPDLIQNAKKSDIPEKPKTPQQLWYTHEKKVYLKVRPDATTKEVKDSLGKQWSQLSDKKRLKWIHKALEQRKEYEEIMRDYIQKHPELNISEEGITKSTLTKAERQLKDKFDGRPTKPPPNSYSLYCAELMANMKDVPSTERMVLCSQQWKLLSQKEKDAYHKKCDQKKKDYEVELLRFLESLPEEEQQRVLGEEKMLNINKKQATSPASKKPAQEGGKGGSEKPKRPVSAMFIFSEEKRRQLQEERPELSESELTRLLARMWNDLSEKKKAKYKAREAALKAQSERKPGGEREERGKLPESPKRAEEIWQQSVIGDYLARFKNDRVKALKAMEMTWNNMEKKEKLMWIKKAAEDQKRYERELSEMRAPPAATNSSKKMKFQGEPKKPPMNGYQKFSQELLSNGELNHLPLKERMVEIGSRWQRISQSQKEHYKKLAEEQQKQYKVHLDLWVKSLSPQDRAAYKEYISNKRKSMTKLRGPNPKSSRTTLQSKSESEEDDEEDEDDEDEDEEEEDDENGDSSEDGGDSSESSSEDESEDGDENEEDDEDEDDDEDDDEDEDNESEGSSSSSSSSGDSSDSDSN
B2: CCDC47 (protein, UniProt Q96A33 21-483, looked up)
PAT complex subunit CCDC47: KFDDFEDEEDIVEYDDNDFAEFEDVMEDSVTESPQRVIITEDDEDETTVELEGQDENQEGDFEDADTQEGDTESEPYDDEEFEGYEDKPDTSSSKNKDPITIVDVPAHLQNSWESYYLEILMVTGLLAYIMNYIIGKNKNSRLAQAWFNTHRELLESNFTLVGDDGTNKEATSTGKLNQENEHIYNLWCSGRVCCEGMLIQLRFLKRQDLLNVLARMMRPVSDQVQIKVTMNDEDMDTYVFAVGTRKALVRLQKEMQDLSEFCSDKPKSGAKYGLPDSLAILSEMGEVTDGMMDTKMVHFLTHYADKIESVHFSDQFSGPKIMQEEGQPLKLPDTKRTLLFTFNVPGSGNTYPKDMEALLPLMNMVIYSIDKAKKFRLNREGKQKADKNRARVEENFLKLTHVQRQEAAQSRREEKKRAEKERIMNEEDPEKQRRLEEAALRREQKKLEKKQMKMKQIKVKAM
B3: KANK2 (protein, UniProt Q63ZY3 1-851, looked up)
KN motif and ankyrin repeat …: MAQVLHVPAPFPGTPGPASPPAFPAKDPDPPYSVETPYGYRLDLDFLKYVDDIEKGHTLRRVAVQRRPRLSSLPRGPGSWWTSTESLCSNASGDSRHSAYSYCGRGFYPQYGALETRGGFNPRVERTLLDARRRLEDQAATPTGLGSLTPSAAGSTASLVGVGLPPPTPRSSGLSTPVPPSAGHLAHVREQMAGALRKLRQLEEQVKLIPVLQVKLSVLQEEKRQLTVQLKSQKFLGHPTAGRGRSELCLDLPDPPEDPVALETRSVGTWVRERDLGMPDGEAALAAKVAVLETQLKKALQELQAAQARQADPQPQAWPPPDSPVRVDTVRVVEGPREVEVVASTAAGAPAQRAQSLEPYGTGLRALAMPGRPESPPVFRSQEVVETMCPVPAAATSNVHMVKKISITERSCDGAAGLPEVPAESSSSPPGSEVASLTQPEKSTGRVPTQEPTHREPTRQAASQESEEAGGTGGPPAGVRSIMKRKEEVADPTAHRRSLQFVGVNGGYESSSEDSSTAENISDNDSTENEAPEPRERVPSVAEAPQLRPAGTAAAKTSRQECQLSRESQHIPTAEGASGSNTEEEIRMELSPDLISACLALEKYLDNPNALTERELKVAYTTVLQEWLRLACRSDAHPELVRRHLVTFRAMSARLLDYVVNIADSNGNTALHYSVSHANFPVVQQLLDSGVCKVDKQNRAGYSPIMLTALATLKTQDDIETVLQLFRLGNINAKASQAGQTALMLAVSHGRVDVVKALLACEADVNVQDDDGSTALMCACEHGHKEIAGLLLAVPSCDISLTDRDGSTALMVALDAGQSEIASMLYSRMNIKCSFAPMSDDESPTSSSAEE

The subject of one assay is GFP-14-3-3β and its binding proteins. The assay can be described thus: GFP-14-3-3β co-IP with LC-MS/MS label-free quantification, untreated versus PP1c-treated. Set-up: species or system human. As to conditions: GFP-14-3-3β co-IP LC-MS/MS; PP1 vs untreated; student's t-test; label-free quantification, 3 replicates each.
Regarding B1, the “Difference (log2), PP1 vs untreated” value is reported as -0.5334 log2.

Take B2: the “Difference (log2), PP1 vs untreated” value is given as -0.5387 log2.

Take B3: the “Difference (log2), PP1 vs untreated” value is given as -0.5359 log2.

A further assay concerns GFP-14-3-3β. The assay can be described thus: GFP-14-3-3β co-IP with LC-MS/MS, untreated GFP-14-3-3β versus GFP control (14-3-3 interactome). Particulars: GFP-14-3-3β co-IP LC-MS/MS; untreated vs GFP; student's t-test; label-free quantification, 3 replicates each. The assay is classed as binding, human.
In the case of B1, the “Difference (log2), untreated vs GFP” value was found to be 1.529 log2.

For the molecule B2, the “Difference (log2), untreated vs GFP” value was 1.192 log2.

With B3, the “Difference (log2), untreated vs GFP” value is reported as 1.477 log2.
